Data taken from US20230357364A1.

Target: SARS-CoV-1 RBD (RBD-1) (SARS-CoV-1)
Test: ELISA
Settings: remark: other sources report otherwise

B1: L12.bP11A06 (antibody, V domains shown)
VH: EVQLVESGGGLIQPGGSLRLSCAASGLTVSSNYMSWVRQAPGKGLEWVSVIYSGGSTFYADSVKGRFTISRDNSKNTLYLQMNSLRAEDTAVYYCARDLDVYGLDVWGQGTTVTVSS
VL: DIVMTQSPSFLSASVGDRVTITCRASQGISSYLAWYQQKPGKAPKLLIYAASTLQSGVPSRFSGSGSGTEFTLTISSLQPEDFATYYCQQLNSYPPKFTFGPGTKVEIK
For B1, the EC50 was greater than 50 µg/mL.
